Numbering of substitutions follows the chain as printed.
B1: anti-CD277 monoclonal antibody mAb1 (antibody, V domains shown)
VH: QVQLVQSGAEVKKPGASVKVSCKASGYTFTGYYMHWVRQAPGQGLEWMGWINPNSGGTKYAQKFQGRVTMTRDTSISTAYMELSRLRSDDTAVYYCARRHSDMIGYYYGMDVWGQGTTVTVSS
VL: DIQMTQSPSSVSASVGDRVTITCRASQGISSWLAWYQQKPGKAPKLLIYAASSLQSGVPSRFSGSGSGTDFTLTISSLQPEDFATYYCQQATDFPPTFGGGTKVEIKR
B2: anti-CD277 antibody mAb9 (antibody, V domains shown)
VH: QVQLVQSGAEVKKPGASVKVSCKASGYTFNGYYIHWVRQAPGQGLEWMGWINSNSGGTKYAQKFQGRVTMTRDTSISTAYMELSRLRSDDTAVYYCARRHSDMIGYYYGMDVWGQGTTVTVSS
VL: DIQLTQSPSSLSASVGDRVTITCRASQSISSYLNWYQQKPGKVPKLLIYAASTLQSGVPSRFSGSGSGTDFTLTISSLQPEDFATYSCQQTNSFPPTFGQGTKVEIKR
B3: anti-CD277 antibody mAb2 (antibody, human IgG1, kappa, N297A, V domains shown)
VH: B2 VH with N30S, G31N, S53A
VL: B2 VL with L4M, S30D, S31R, V43A, T53R, S87Y, T91A, K103R, V104L
B4: anti-CD277 antibody mAb11 (antibody, human IgG1, kappa, N297A, V domains shown)
VH: B2 VH with N30S, G31N, S53A
VL: B2 VL with L4M, V43A, T53S, S87Y, T91A, S93T, K103R, V104L
B5: anti-CD277 antibody mAb5 (antibody, human IgG1, kappa, N297A, V domains shown)
VH: B2 VH with N30S, G31N, S53A
VL: B1 VL
B6: anti-CD277 antibody mAb6 (antibody, human IgG1, kappa, N297A, V domains shown)
VH: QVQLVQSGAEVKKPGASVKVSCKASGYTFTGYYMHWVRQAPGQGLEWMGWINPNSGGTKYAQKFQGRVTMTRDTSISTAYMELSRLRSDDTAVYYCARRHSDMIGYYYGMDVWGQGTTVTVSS
VL: B1 VL with V11L, G28S, S31L, W32F, A34N, A50T, T92N, D93S, E105D
B7: anti-CD277 antibody mAb10 (antibody, human IgG1, kappa, N297A, V domains shown)
VH: B2 VH with N30T, G31N, I34M, S53V, G57V
VL: B2 VL with L4M, V43A, T53S, S87Y, T91A, S93T, K103R, V104L
B8: anti-CD277 antibody mAb4 (antibody, human IgG1, kappa, N297A, V domains shown)
VH: B2 VH with N30T, G31N, I34M, S53V, G57V
VL: B1 VL
B9: anti-CD277 antibody mAb3 (antibody, human IgG1, kappa, N297A, V domains shown)
VH: B2 VH
VL: B1 VL
B10: anti-CD277 antibody mAb8 (antibody, human IgG1, kappa, N297A, V domains shown)
VH: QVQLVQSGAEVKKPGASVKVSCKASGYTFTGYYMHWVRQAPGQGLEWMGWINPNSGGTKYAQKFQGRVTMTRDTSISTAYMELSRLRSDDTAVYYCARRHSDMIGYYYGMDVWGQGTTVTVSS
VL: B2 VL with L4M, S30D, S31R, V43A, T53R, S87Y, T91A, K103R, V104L
B11: anti-CD277 antibody mAb7 (antibody, human IgG1, kappa, N297A, V domains shown)
VH: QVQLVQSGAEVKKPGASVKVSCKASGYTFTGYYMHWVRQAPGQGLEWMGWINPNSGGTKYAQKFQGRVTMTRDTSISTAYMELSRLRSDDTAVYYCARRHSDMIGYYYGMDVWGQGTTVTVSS
VL: B1 VL with V11L, G28D, S31V, W32Y, A34N, A50T, T92N, D93S, E105D

target: human BTN3A1 ectopically expressed on K32 cells (human, UniProt O00481 30-513); assay: cell-based or functional assay
Sequence (O00481 30-513 limits assumed): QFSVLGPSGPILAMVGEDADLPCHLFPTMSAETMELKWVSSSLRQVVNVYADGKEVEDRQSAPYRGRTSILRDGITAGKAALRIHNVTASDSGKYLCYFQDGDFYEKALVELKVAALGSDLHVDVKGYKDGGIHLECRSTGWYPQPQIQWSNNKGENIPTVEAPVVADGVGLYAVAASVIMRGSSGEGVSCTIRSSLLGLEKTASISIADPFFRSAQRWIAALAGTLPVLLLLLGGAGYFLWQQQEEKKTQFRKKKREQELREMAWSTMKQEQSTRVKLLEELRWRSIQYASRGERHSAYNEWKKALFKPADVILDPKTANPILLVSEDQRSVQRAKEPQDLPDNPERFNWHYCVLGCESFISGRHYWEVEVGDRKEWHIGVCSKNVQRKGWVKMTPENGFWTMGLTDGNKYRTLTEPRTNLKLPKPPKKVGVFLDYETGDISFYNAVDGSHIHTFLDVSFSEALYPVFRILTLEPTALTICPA

IFN-γ release by purified CD4+ T cells stimulated with BTN-K32 cells	IFN-γ release by purified CD8+ T cells stimulated with BTN-K32 cells	proliferation of gated CD4+ T cells within total PBMCs co-cultured with anti-CD3/anti-CD28 coated BTN-K32 cells	proliferation of gated CD8+ T cells within total PBMCs co-cultured with anti-CD3/anti-CD28 coated BTN-K32 cells	proliferation of purified CD4+ T cells stimulated with BTN-K32 cells	proliferation of purified CD8+ T cells stimulated with BTN-K32 cells	Binder
≥ 2 fold	~1300 fold	≥ 1.5 fold	≥ 1.5 fold	≥ 1.5 fold	≥ 2 fold	B1

target: T1, human CD277 (human, UniProt O00481 30-254, limits assumed); assay: SPRi (Carterra MX96), antibody printed on chip, his-tagged antigen injected, 1:1 fit
T1 construct: The SPR method text speaks of 'purified recombinant his tagged human CD137', apparently an error for CD277; also called BTN3A1; human CD277 polypeptides
T1 sequence (O00481 30-254 limits assumed): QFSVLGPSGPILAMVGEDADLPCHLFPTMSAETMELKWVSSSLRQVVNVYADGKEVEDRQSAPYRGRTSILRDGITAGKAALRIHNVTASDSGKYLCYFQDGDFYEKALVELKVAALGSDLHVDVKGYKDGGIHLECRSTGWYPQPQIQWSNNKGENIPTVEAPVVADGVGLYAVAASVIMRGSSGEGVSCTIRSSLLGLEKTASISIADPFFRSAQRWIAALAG
Description: The resulting anti-CD277 antibodies from different selection rounds were plotted on kd/kₐ double log plots. Apparent association and dissociation kinetic rate constants (kₐ and kd values) were determined on an SPRi reader (MX96, Carterra) in a running buffer of PBS-C 0.01%. […] antibodies were covalently printed on a Carboxymethyldextran hydrogel 50 L chip (Xantec bioanalytics) on a CFM (Carterra). Freshly mixed activating reagents ([…] 0.4 M EDC and […] 0.1 M sulfo-NHS in H2O) were used to activate the surface of the SPR substrate for 7 minutes. Antibodies at 10 mg/ml in acetic acid buffer pH 4.5 were used for printing for 15 minutes. The printed chip was then quenched on SPRi reader (MX96, Carterra) with 1 M ethanolamine for 15 minutes. For kinetics analysis, purified recombinant his tagged human […] (0, 2.05, 5.12, 12.8, 32, 80, 200, 500 nM) was injected sequentially. For each concentration, there was 5 minutes of association followed by 10 minutes of dissociation. Data were processed and analyzed in SPR Inspection Tool and Scrubber softwares. The kinetic data were referenced with the interstitial reference spots and double-referenced to a buffer cycle, and then fit globally to a 1:1 binding model to determine their apparent association and dissociation kinetic rate constants (kₐ and kd values). The ratio kd/kₐ was used to derive the KD value of each antigen/mAb interaction, i.e. KD=kd/kₐ.

Kd	koff	kon	Binder
6.82 nM	9.71e-05 s⁻¹	14200 M⁻¹ s⁻¹	B2
2.68 nM	4.89e-05 s⁻¹	18300 M⁻¹ s⁻¹	B3
16.7 nM	0.000384 s⁻¹	23000 M⁻¹ s⁻¹	B1
5.13 nM	9.36e-05 s⁻¹	18200 M⁻¹ s⁻¹	B4
12.9 nM	0.00025 s⁻¹	19300 M⁻¹ s⁻¹	B5
4.37 nM	0.000118 s⁻¹	27100 M⁻¹ s⁻¹	B6
4.69 nM	8.03e-05 s⁻¹	17100 M⁻¹ s⁻¹	B7
10.1 nM	0.00019 s⁻¹	18800 M⁻¹ s⁻¹	B8
6.71 nM	0.000121 s⁻¹	18100 M⁻¹ s⁻¹	B9
6.05 nM	0.000138 s⁻¹	22800 M⁻¹ s⁻¹	B10
6.69 nM	0.000159 s⁻¹	23700 M⁻¹ s⁻¹	B11

— patent US20210309746A1 (COMPASS THERAPEUTICS, published 2021)
